Test results published in publication PMC10127198, “Pseudouridine-Modifying Enzymes SapB and SapH Control Entry into the Pseudouridimycin Biosynthetic Pathway” (ACS Chemical Biology, 2023).

What was measured:
[1] = target: T1, SapH (Streptomyces albus, UniProt A0ACH0CL42); assay: relative activity by HPLC, coupled with SapB; assay type: biochemical; conditions: amino donor 5 mM, 1.5 mM uridine, 1 μM SapB, 2 μM SapH, pH 7.5
T1 construct: gene NR995_03130; homodimer

[2] = target: T2, SapB (Streptomyces albus, UniProt A0ACH0CL45); assay: LC/MS of cofactor released by boiling; assay type: binding; conditions: copurified, tightly bound
T2 construct: gene NR995_03120; N-terminal His6-tag, codon-optimized synthetic gene in pBADHisBd, E. coli TOP10
T2 sequence (A0ACH0CL45 1-509): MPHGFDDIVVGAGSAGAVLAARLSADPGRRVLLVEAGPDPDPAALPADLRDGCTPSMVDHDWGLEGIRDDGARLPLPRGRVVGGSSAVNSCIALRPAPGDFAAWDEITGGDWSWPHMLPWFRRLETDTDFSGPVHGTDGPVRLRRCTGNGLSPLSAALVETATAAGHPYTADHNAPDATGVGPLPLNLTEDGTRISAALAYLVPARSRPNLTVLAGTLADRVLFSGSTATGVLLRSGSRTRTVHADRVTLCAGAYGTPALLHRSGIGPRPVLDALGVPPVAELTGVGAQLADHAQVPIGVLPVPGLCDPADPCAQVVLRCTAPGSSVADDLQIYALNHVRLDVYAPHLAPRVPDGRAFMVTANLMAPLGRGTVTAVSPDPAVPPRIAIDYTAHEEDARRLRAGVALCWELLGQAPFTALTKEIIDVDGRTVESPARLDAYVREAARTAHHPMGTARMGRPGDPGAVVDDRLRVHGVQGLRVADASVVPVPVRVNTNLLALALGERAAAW

[3] = target: T1, SapH; assay: X-ray crystallography, […] Å; assay type: binding; conditions: active site at dimer interface; non-covalent (no link to Lys289); crystals pH 7.5, 20 °C
[4] = system: O=c1[nH]cc([C@@H]2O[C@H](CO)[C@@H](O)[C@H]2O)c(=O)[nH]1; assay: purified protein; conditions: 50 mM Tris-HCl pH 7.5, 10 mM NaCl, 10 mM KCl, 5 mM MgCl2, O2 as electron acceptor
[5] = system: O=c1[nH]c(=O)c([C@@H]2O[C@H](CO)[C@@H](O)[C@H]2O)co1; assay: purified protein; conditions: 50 mM Tris-HCl pH 7.5, 10 mM NaCl, 10 mM KCl, 5 mM MgCl2, O2 as electron acceptor
[6] = target: SapH (Streptomyces albus DSM 40763); assay: crystal structure; hanging drop vapour diffusion at 20 °C; SapH 9.9 mg/mL in 50 mM TAPS pH 8.5, 250 mM NaCl, 10% glycerol; well 0.1 M BisTRIS-propane, 0.2 M Na-K-phosphate, 27.5% PEG3350, pH 7.5; space group P212121; dimer in the asymmetric unit

T1 sequence (A0ACH0CL42 entry or part of it): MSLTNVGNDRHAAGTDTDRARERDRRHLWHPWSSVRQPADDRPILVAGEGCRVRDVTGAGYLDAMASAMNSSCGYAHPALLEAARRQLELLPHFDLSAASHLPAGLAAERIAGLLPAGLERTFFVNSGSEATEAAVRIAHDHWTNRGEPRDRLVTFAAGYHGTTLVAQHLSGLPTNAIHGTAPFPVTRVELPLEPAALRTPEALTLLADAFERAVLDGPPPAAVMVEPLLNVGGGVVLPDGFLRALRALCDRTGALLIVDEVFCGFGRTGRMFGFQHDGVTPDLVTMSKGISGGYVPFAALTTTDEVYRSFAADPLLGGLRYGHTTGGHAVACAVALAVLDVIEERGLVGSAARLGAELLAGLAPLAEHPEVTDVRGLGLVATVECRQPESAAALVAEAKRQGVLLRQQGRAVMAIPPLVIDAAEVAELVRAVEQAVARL

N=C(N)NCCC[C@H](N)C(=O)O [arginine]
relative activity by HPLC, coupled with SapB [1]: shows preference for methionine, phenylalanine, and arginine

Cc1cc2nc3c(=O)[nH]c(=O)nc-3n(C[C@H](O)[C@H](O)[C@H](O)COP(=O)(O)OP(=O)(O)OC[C@H]3O[C@@H](n4cnc5c(N)ncnc54)[C@H](O)[C@@H]3O)c2cc1C [flavin adenine dinucleotide]
LC/MS of cofactor released by boiling [2]: LC/MS) analysis identified the SapB cofactor to be flavin adenine dinucleotide (FAD)

Cc1ncc(COP(=O)(O)O)c(CN)c1O [pyridoxamine-5′-phosphate]
X-ray crystallography, 1.55 Å [3]: The bound PLP was modeled as pyridoxamine, according to the observed electron density map

SapB (Streptomyces albus)
Km [4]: 34 ± 5 µM | kcat [4]: 0.019 s⁻¹ | kcat/Km [4]: 550 M⁻¹ s⁻¹ | Km [5]: 181 ± 25 µM | kcat [5]: 0.0172 s⁻¹ | kcat/Km [5]: 95 M⁻¹ s⁻¹

SapH (enzyme)
stoichiometry N [6]: 2
